Results taken from article PMC6894278, “Enzymatic synthesis of L-fucose from L-fuculose using a fucose isomerase from Raoultella sp. and the biochemical and structural analyses of the enzyme” (Biotechnology for Biofuels, 2019).

What was measured:
[1] = biological target: L-fucose isomerase from Raoultella sp. KDH14 (RdFucI) (Raoultella sp. KDH14); assay: crystal structure; six subunits in the asymmetric unit; crystals grown in 0.1 M HEPES pH 7.5, 20% (w/v) PEG 10,000 at 20 °C; also soaked with 10 mM Mn2+
[2] = biological target: L-fucose isomerase from Raoultella sp. KDH14 (RdFucI) (Raoultella sp. KDH14); assay: SEC; analytical size-exclusion chromatography, Superdex 200 10/300 GL, 10 mM Tris-HCl, 200 mM NaCl, pH 8.0; calibrated with standard proteins
[3] = substrate: O=C(CO)[C@H](O)[C@H](O)CO; assay: isomerase kinetics, D-ribulose to D-arabinose; type: biochemical, Klebsiella planticola; conditions: 1 mM MnCl2 (general assay); pH and temperature of the kinetics not stated in main text; pH 10.0; 40.0 °C
Method: isomerase kinetics, D-ribulose to D-arabinose on RdFucI | Kinetic parameters were determined using L-fuculose and D-ribulose as the substrates

| Molecule | stoichiometry N [1] | stoichiometry N [2] | Km [3] | kcat [3] | kcat/Km [3] |
| --- | --- | --- | --- | --- | --- |
| L-fucose isomerase from Raoultella sp. KDH14 (RdFucI) (enzyme) | 6 | 6 |  |  |  |
| RdFucI (Klebsiella planticola) (protein, N-terminal His6 tag (pET28a, NdeI/EcoRI), E. coli BL21(DE3); tag removal not mentioned; homohexamer) MKRISLPKIGIRPVIDGRRMGVRESLEEQTMNMAKATAALISEKLRHASGAQIECVIADTCIAGMAESAACEEKFSSQNVGVTITVTPCWCYGSETIDMDPLRPKAIWGFNGTERPGAVYLAAALAAHSQKGIPAFSIYGHDVQDADDTTIPADVEEKLLRFARAGLAVASMKGKSYLSVGGVSMGIAGSIVDHNFFESWLGMKVQAVDMTELRRRIDQKIYDEVELEMALAWADKNFRYGEDQNAQHYKRDEEQSRAVLKESLLMAMCIRDMMQGNKKLAEKGLVEESLGYNAIAAGFQGQRHWTDQYPNGDTAEALLNSSFDWNGVREPFVVATENDSLNGVAMLMGHQLTGTAQVFADVRTYWSPDAVERVTGQPLTGLAEHGIIHLINSGSAALDGSCKQRDEEGKPTMKPHWEISQKEADACLAATEWCPAIHEYFRGGGYSSRFLTEGGVPFTMTRVNIIKGLGPVLQIAEGWSVELPKAMHDQLDARTNSTWPTTWFAPRLTGKGPFADVYSVMANWGANHGVLTIGHVGADFITLAAMLRIPVCMHNVEEGKIYRPSSWSAHGMDTEGQDYRACQNYGPLYKR |  |  | 13.7 ± 1.1 mM | 138 ± 5.69 s⁻¹ | 10100 ± 493 M⁻¹ s⁻¹ |
